Test results taken from patent US20100011462A1, “FLAVIN MONOOXYGENASES AND TRANSCRIPTION FACTORS INVOLVED IN GLUCOSINOLATE BIOSYNTHESIS” (University of Copenhagen, priority 2006, published 2010).

B1: At1g65860: flavin-containing monooxygenase (FMO) from A. thaliana, SEQ ID NO 4; also its overexpression in planta (protein, listed as Arabidopsis thaliana)
chain: MAPTQNTICSKHVAVIGAGAAGLVTARELRREGHTVVVFDREKQVGGLWNYSSKADSDPLSLDTTRTIVHTSIYESLRTNLPRECMGFTDFPFVPRIHDISRDSRRYPSHREVLAYLQDFAREFKIEEMVRFETEVVCVEPVNGKWSVRSKNSVGFAAHEIFDAVVVCSGHFTEPNVAHIPGIKSWPGKQIHSHNYRVPGPFNNEVVVVIGNYASGADISRDIAKVAKEVHIASRASESDTYQKLPVPQNNLWVHSEIDFAHQDGSILFKNGKVVYADTIVHCTGYKYYFPFLETNGYININENRVEPLYKHVFLPALAPSLSFIGLPGMAIQFVMFEIQSKWVAAVLSGRVILPSQDKMMEDIIEWYATLDVLGIPKRHTHKLGKISCEYLNWIAEECHCSPVENWRIQEVERGFQRMVSHPEIYRDEWDDDDLMEEAYKDFARKKLISSHPSYFLES
B2: At1g62560: flavin-containing monooxygenase (FMO) from A. thaliana, SEQ ID NO 2; also its overexpression in planta (protein, listed as Arabidopsis thaliana)
chain: MAPAQNQITSKHVAVIGAGPAGLITSRELRREGHSVVVFEREKQVGGLWVYTPKSDSDPLSLDPTRSKVHSSIYESLRTNVPRESMGVRDFPFLPRFDDESRDARRYPNHREVLAYIQDFAREFKIEEMIRFETEVVRVEPVDNGNWRVQSKNSGGFLEDEIYDAVVVCNGHYTEPNIAHIPGIKSWPGKQIHSHNYRVPDPFENEVVVVIGNFASGADISRDIAKVAKEVHIASRAREPHTYEKISVPQNNLWMHSEIDTTHEDGSIVFKNGKVIFADSIVYCTGYKYNFPFLETNGYLRIDEKRVEPLYKHVFPPALAPGLAFVGLPAMGIVFVMFEIQSKWVAAVLSGRVTLPSTDKMMEDINAWYASLDALGIPKRHTHTIGRIQSEYLNWVAKESGCELVERWRGQEVDGGYLRLVAHPETYRDEWDDDELIEEAYNDFSRKKLISVDPSYYLENGR

Columns and labels:
[1] = biological target: T1, At1g12140 (Arabidopsis thaliana, UniProt A8MRX0); experiment: Heterologous expression of At1g12140 in E. coli, desulfo-glucosinolate substrate mix; format: biochemical; settings: desulfo-glucosinolates from Arabidopsis Col-0 seeds as substrate mix
T1 construct: made in house; host or cells: E. coli
T1 sequence (A8MRX0 1-459): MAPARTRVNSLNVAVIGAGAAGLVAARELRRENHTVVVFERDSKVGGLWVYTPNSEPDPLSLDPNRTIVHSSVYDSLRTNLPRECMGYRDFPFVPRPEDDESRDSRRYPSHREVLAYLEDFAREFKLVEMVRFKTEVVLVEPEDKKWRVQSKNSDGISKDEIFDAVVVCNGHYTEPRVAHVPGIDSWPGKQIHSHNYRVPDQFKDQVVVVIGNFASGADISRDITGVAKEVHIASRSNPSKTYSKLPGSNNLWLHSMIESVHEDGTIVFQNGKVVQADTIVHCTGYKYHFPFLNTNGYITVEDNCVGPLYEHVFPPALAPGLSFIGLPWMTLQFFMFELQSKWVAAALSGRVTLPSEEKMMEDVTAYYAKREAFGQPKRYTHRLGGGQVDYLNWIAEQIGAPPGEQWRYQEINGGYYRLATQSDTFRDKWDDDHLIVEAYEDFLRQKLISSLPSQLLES
From the text: (§1) FIG. 15—Heterologous expression of At1g12140 in E. coli using desulfo-glucosinolates from glucosinolates from Arabidopsis Col-0 seeds as substrate mix.

[2] = Activity of FMOs of the invention in E. coli or in seeds using a variety of substrates; format: biochemical, Arabidopsis thaliana; settings: for S-oxygenation activity: desulfo and intact glucosinolates; for substrate specificity: methylthio glucosinolates in Arabidopsis
From the text: FIG. 11—Heterologous expression of At1g62560 in E. coli using 4MTB as substrate, with an empty vector as control.
FIG. 13—Heterologous expression of At1g62540 in E. coli using 4MTB as substrate, with an empty vector as control.
as §1
FIG. 17—Heterologous expression of At1g62570 in E. coli using desulfo-glucosinolates from glucosinolates from Arabidopsis Col-0 seeds as substrate mix, with an empty vector as control.
FIGS. 11-18 show the activity of At1g62560, At1g65860, At1g62540, At1g12140 and At1g62570 in E. coli or in seeds using a variety of substrates.

[3] = system: Arabidopsis thaliana Col-0; experiment: 4MTB and 4MSB levels in At1g65860 and At1g62560 overexpression lines; format: in vivo; settings: expressed constitutively
Procedure: FIG. 5—4-methylthiobutyl glucosinolate levels in rosette leaves from 24 day old wild type columbia and transgenic At1g65860 and At1g62560 overexpression lines. Quantities are given in nmol/mg fresh weight ±one standard deviation and are the mean of extractions from four individual plants. Two independent lines were analysed for each construct. The lines H and AT for 35S overexpression of At1g65860 and line 9 and 11 for 35S overexpression of At1g62560.
FIG. 12—4-6 fold increase in 4MSB levels in seeds in overexpressors of At1g62560 and At1g65860.
In another separate experiment a mix of heterozygous and homozygous 35S:At1g62560 and 35S:At1g65860 as well as Arabidopsis thaliana, ecotype Columbia, were used.
Three-four leaves (20-80 mg) were harvested from each plant and the material freeze-dried O/N. After adding one ball bearing to each tube, the tissue was homogenized by shaking at a frequency of 30 s^−1 for one min on a Retsch Mixer Mill 303 (Retsch, Haan, Germany). 250 μl of 85% methanol was added to each tube and the entire box vortexed for 30 s. For glucosinolate extraction from seeds (10-20 mg) 250 μl of 85% methanol was added before homogenization. The samples were mixed for two minutes by vortexing. […]

Molecule | S-oxygenation activity [1] | S-oxygenation activity [2] | substrate specificity [2] | 4-methylthiobutyl glucosinolate levels [3]
CSCCCCCCCCC(=NOS(=O)(=O)O)S[C@@H]1O[C@H](CO)[C@@H](O)[C@H](O)[C@H]1O [8MTO, 8-methylthiooctyl glucosinolate] | high activity | – | – | –
B1 | – | S-oxygenation activity | broad specificity towards all methylthio (MT) glucosinolates | reduced
B2 | – | S-oxygenation activity | broad specificity towards all methylthio (MT) glucosinolates | reduced
